In the RNAGym collection of RNA variant scans (doi:10.7554/elife.80360) one finds self-cleavage data, which are given here for 167 variants.

B1: Hammerhead Ribozyme (parent)
chain: ACCGGAUGUGCUUUCCGGUCUGAUGAGUCCGUGAGGACGAAACAG

The variants in the data set derive from B1. In words: self-cleavage, relative activity (ratio to wild type); higher = more cleavage; co-transcriptional.
As to C2U G10A, the self-cleavage amounted to 1.22. The figure for C2U G10U is 1.39; for C2A U32A it is 0.784; for C2A U32C it is 0.632. For the variant C2A U32G, the self-cleavage is 0.469. Next, C3A A26U: 0.399; C3A A26G: 0.253. Next, C3A A26C: 0.292; C2U G25C: 0.345; C2U G25U: 0.28. The figure for C2U G25A is 0.386; for C2U U12C it is 1.06. Turning to C2U U12G, the self-cleavage is 1.21. The figure for C2U U12A is 1.26. Next, C2G G33A: 0.463. Next, C2G G33U: 0.535. For C2G G33C, the self-cleavage was 0.443. Regarding C2G G8U, the self-cleavage stood at 0.387.

For the variant C2G G8C, the self-cleavage worked out at 0.302. The figure for C2G G8A is 0.385; for C3A C43U it is 0.378.

With C3A C43G, the self-cleavage was found to be 0.261. The figure for C3A C43A is 0.28. The figure for C2G U12G is 0.31; for C2G U12A it is 0.335; for C2G U12C it is 0.342. Next, C2G A42C: 0.32; C2G A42G: 0.273. Consider C2G A42U, for which the self-cleavage amounted to 0.292.

With C2G C11U, the self-cleavage is 0.32.

Take C2G C11A: the self-cleavage was 0.378. As to C2G C11G, the self-cleavage is 0.402.

Regarding C2U G39C, the self-cleavage is 0.336. As to C2U G39U, the self-cleavage worked out at 0.359.

In the case of C2U G39A, the self-cleavage stood at 0.376. The figure for C2U C11U is 0.739; for C2U C11G it is 1.5; for C2U C11A it is 1.46. The figure for C2U U19C is 0.531. Next, C2U U19G: 0.319; C2U U19A: 0.365. Take C2G A40U: the self-cleavage was determined as 0.287. The figure for C2G A40G is 0.266; for C2G A40C it is 0.352. Next, C2U G33C: 1.06; C2U G33A: 1.14; C2U G33U: 1.17. The figure for C2U G17C is 0.375; for C2U G17A it is 0.392; for C2U G17U it is 0.409.

Turning to C2A U24G, the self-cleavage stood at 0.644. With C2A U24A, the self-cleavage worked out at 0.929. For C2A U24C, the self-cleavage is 0.733. The figure for C3A A23G is 0.296; for C3A A23U it is 0.28; for C3A A23C it is 0.352.

On to C3A A6C, for which the self-cleavage came to 0.335. In the case of C3A A6U, the self-cleavage came out at 0.371. With C3A A6G, the self-cleavage came out at 0.366. Next, C2A U14G: 0.697; C2G G45C: 0.331; C2G G45U: 0.335. For C2G G45A, the self-cleavage is 0.349. Next, C2U A6C: 0.429. The figure for C2U A6U is 0.865. Next, C2U A6G: 0.927; C2G U21A: 0.314. Consider C2G U21C, for which the self-cleavage is 0.329. With C2G U21G, the self-cleavage was found to be 0.331.

With C2G C30U, the self-cleavage was 0.354. For C2G C30A, the self-cleavage is 0.374.

Take C2G C30G: the self-cleavage stood at 0.237.

As to C2U G18A, the self-cleavage is 1.19. On to C2U G18C, for which the self-cleavage was 0.869. For the variant C2U G18U, the self-cleavage worked out at 1.16. The figure for C2G G10A is 0.383.

In the case of C2G G10C, the self-cleavage came out at 0.38. Next, C2G G10U: 0.379. C2U U32A: the self-cleavage was determined as 0.97.

Turning to C2U U32C, the self-cleavage was found to be 0.971. Next, C2U U32G: 1.04; C2U A44C: 0.664; C2U A44U: 0.646. As to C2U A44G, the self-cleavage amounted to 1.55.

C2G A37U: the self-cleavage turned out to be 0.293. Turning to C2G A37C, the self-cleavage is 0.311. Next, C2G A37G: 0.351; C3A G4A: 0.293. As for C3A G4U, the self-cleavage was determined as 0.282. Next, C3A G4C: 0.216. For C2G U32A, the self-cleavage was determined as 0.418. Next, C2G U32G: 0.379; C2G U32C: 0.332; C2G G22C: 0.296. With C2G G22A, the self-cleavage came to 0.292. As to C2G G22U, the self-cleavage stood at 0.312. In the case of C2G G25U, the self-cleavage is 0.272. Regarding C2G G25C, the self-cleavage stood at 0.267. The figure for C2G G25A is 0.325; for C2U C38G it is 0.976. For C2U C38U, the self-cleavage stood at 1.21. As for C2U C38A, the self-cleavage turned out to be 0.854.

On to C2U A40C, for which the self-cleavage is 0.51.

Regarding C2U A40G, the self-cleavage is 0.284. The figure for C2U A40U is 0.346; for C2U C43G it is 0.372. On to C2U C43A, for which the self-cleavage turned out to be 0.361. Next, C2U C43U: 0.441; C3A A34G: 0.515.

For C3A A34C, the self-cleavage amounted to 0.359.

As for C3A A34U, the self-cleavage came to 0.358. Consider C2G G17C, for which the self-cleavage is 0.329. Next, C2G G17A: 0.377; C2G G17U: 0.291; C2U U9G: 0.659. Regarding C2U U9A, the self-cleavage amounted to 1.24.

Consider C2U U9C, for which the self-cleavage was determined as 0.983. The figure for C2U G8U is 0.948. Consider C2U G8C, for which the self-cleavage came to 0.871. The figure for C2U G8A is 0.998; for C2G C43U it is 0.305. With C2G C43A, the self-cleavage was 0.328.

For the variant C2G C43G, the self-cleavage was found to be 0.308. The figure for C2G U13A is 0.353. The figure for C2G U13C is 0.4; for C2G U13G it is 0.332; for C3A C11G it is 0.562. Next, C3A C11U: 0.358. C3A C11A: the self-cleavage was determined as 0.754. For the variant C3A A44U, the self-cleavage is 0.392. For C3A A44C, the self-cleavage is 0.418. The figure for C3A A44G is 1.01; for C2G it is 0.455; for C2U it is 1.17. Next, C2G C15U: 0.304; C2G C15G: 0.29; C2G C15A: 0.302. The figure for C3A A40U is 0.278; for C3A A40C it is 0.324. Turning to C3A A40G, the self-cleavage was 0.353. The figure for C2G G36A is 0.3; for C2G G36U it is 0.325.

For C2G G36C, the self-cleavage was found to be 0.336. Next, C2G A23G: 0.318. With C2G A23U, the self-cleavage was determined as 0.321. For the variant C2G A23C, the self-cleavage was 0.294. Next, C3A A37U: 0.388; C3A A37C: 0.354; C3A A37G: 0.539. Next, C2A U19G: 0.381.

Consider C2A U19A, for which the self-cleavage turned out to be 0.308. The figure for C2A U19C is 0.38; for C2G U9G it is 0.32. Next, C2G U9A: 0.367; C2G U9C: 0.357; C2U A41G: 0.389. Next, C2U A41C: 0.35; C2U A41U: 0.365; C3A C30A: 0.557. C3A C30G: the self-cleavage was 0.426. Next, C3A C30U: 0.772; C3A C15G: 0.346. Regarding C3A C15A, the self-cleavage turned out to be 0.312.

For C3A C15U, the self-cleavage was 0.518.

For C2U G27C, the self-cleavage turned out to be 0.654. The figure for C2U G27A is 1.06; for C2U G27U it is 0.568.
